Experimental data published in patent US20180155451A1 (published 2018).

T1: FcγRIIb extracellular domain with C-terminal His tag (human, UniProt P31994 43-217)
T1 construct: extracellular domain; expressed in FreeStyle293 cells; analyte in the Biacore assay; also called FcgRIIb; 2b; not shown: His tag at the C terminus
T1 sequence (looked up): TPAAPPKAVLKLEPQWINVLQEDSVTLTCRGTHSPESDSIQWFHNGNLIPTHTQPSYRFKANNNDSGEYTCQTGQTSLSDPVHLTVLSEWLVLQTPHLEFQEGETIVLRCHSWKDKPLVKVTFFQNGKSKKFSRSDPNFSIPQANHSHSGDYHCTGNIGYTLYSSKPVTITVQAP

B1: GpH7-A5/GpH7-B3 variant K326_07I/GpL16-k0 (antibody, human IgG1, kappa)
heavy 1: not shown
heavy 2: not shown
light: DIVMTQSPLSLPVTPGEPASISCQASESLVHSNRNTYLHWYLQKPGQSPQLLIYKVSNRFSGVPDRFSGSGSGTDFTLKISRVEAEDVGVYYCSQNTHVPPTFGQGTKVEIERTVAAPSVFIFPPSDEQLKSGTASVVCLLNNFYPREAKVQWKVDNALQSGNSQESVTEQDSKDSTYSLSSTLTLSKADYEKHKVYACEVTHQGLSSPVTKSFNRGEC
notes: heterodimerized; mutation in the B3 H chain only; also called He Ab K326_07I
B2: GpH7-A5/GpH7-B3 variant A327_09D/GpL16-k0 (antibody, human IgG1, kappa)
heavy 1: not shown
heavy 2: not shown
light: B1 light
notes: heterodimerized; mutation in the B3 H chain only; also called He Ab A327_09D
B3: GpH7-A5/GpH7-B3 variant G236_10E/GpL16-k0 (antibody, human IgG1, kappa)
heavy 1: not shown
heavy 2: not shown
light: B1 light
notes: heterodimerized; mutation in the B3 H chain only; also called He Ab G236_10E
B4: GpH7-A5/GpH7-B3 variant A327_10E/GpL16-k0 (antibody, human IgG1, kappa)
heavy 1: not shown
heavy 2: not shown
light: B1 light
notes: heterodimerized; mutation in the B3 H chain only; also called He Ab A327_10E
B5: GpH7-A5/GpH7-B3 variant A330_01G/GpL16-k0 (antibody, human IgG1, kappa)
heavy 1: not shown
heavy 2: not shown
light: B1 light
notes: heterodimerized; mutation in the B3 H chain only; also called He Ab A330_01G
B6: GpH7-A5/GpH7-B3 variant G236_09D/GpL16-k0 (antibody, human IgG1, kappa)
heavy 1: not shown
heavy 2: not shown
light: B1 light
notes: heterodimerized; mutation in the B3 H chain only; also called He Ab G236_09D
B7: GpH7-B3 variant I332_04F/GpL16-k0 (antibody, human IgG1, kappa)
heavy: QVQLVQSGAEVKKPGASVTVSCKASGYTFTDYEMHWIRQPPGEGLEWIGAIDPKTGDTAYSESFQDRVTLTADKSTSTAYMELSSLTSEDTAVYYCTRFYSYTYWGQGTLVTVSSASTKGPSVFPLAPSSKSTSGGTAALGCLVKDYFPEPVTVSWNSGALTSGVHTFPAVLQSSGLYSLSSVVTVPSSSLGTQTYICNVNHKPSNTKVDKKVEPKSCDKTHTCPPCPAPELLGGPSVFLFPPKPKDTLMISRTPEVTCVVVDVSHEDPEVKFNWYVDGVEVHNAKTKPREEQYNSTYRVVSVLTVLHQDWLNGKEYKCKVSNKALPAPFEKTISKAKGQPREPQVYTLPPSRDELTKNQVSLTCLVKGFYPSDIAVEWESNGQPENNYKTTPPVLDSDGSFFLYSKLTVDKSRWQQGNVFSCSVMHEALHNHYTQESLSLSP
light: B1 light
notes: homodimerized; mutation in both H chains; also called Ho Ab I332_04F
B8: GpH7-B3 variant I336_08L/GpL16-k0 (antibody, human IgG1, kappa)
heavy: not shown
light: B1 light
notes: homodimerized; mutation in both H chains; also called Ho Ab I336_08L
B9: GpH7-B3 variant K326_08L/GpL16-k0 (antibody, human IgG1, kappa)
heavy: not shown
light: B1 light
notes: homodimerized; mutation in both H chains; also called Ho Ab K326_08L
B10: GpH7-B3 variant K326_06M/GpL16-k0 (antibody, human IgG1, kappa)
heavy: not shown
light: B1 light
notes: homodimerized; mutation in both H chains; also called Ho Ab K326_06M
B11: GpH7-B3 variant P238_04F/GpL16-k0 (antibody, human IgG1, kappa)
heavy: not shown
light: B1 light
notes: homodimerized; mutation in both H chains; also called Ho Ab P238_04F
B12: GpH7-B3 variant K326_09D/GpL16-k0 (antibody, human IgG1, kappa)
heavy: not shown
light: B1 light
notes: homodimerized; mutation in both H chains; also called Ho Ab K326_09D
B13: GpH7-B3 variant K326_16H/GpL16-k0 (antibody, human IgG1, kappa)
heavy: not shown
light: B1 light
notes: homodimerized; mutation in both H chains; also called Ho Ab K326_16H
B14: GpH7-B3 variant T335_15Y/GpL16-k0 (antibody, human IgG1, kappa)
heavy: not shown
light: B1 light
notes: homodimerized; mutation in both H chains; also called Ho Ab T335_15Y
B15: GpH7-B3 variant K326_04F/GpL16-k0 (antibody, human IgG1, kappa)
heavy: not shown
light: B1 light
notes: homodimerized; mutation in both H chains; also called Ho Ab K326_04F
B16: GpH7-B3 variant T335_07I/GpL16-k0 (antibody, human IgG1, kappa)
heavy: not shown
light: B1 light
notes: homodimerized; mutation in both H chains; also called Ho Ab T335_07I
B17: GpH7-B3 variant K334_05P/GpL16-k0 (antibody, human IgG1, kappa)
heavy: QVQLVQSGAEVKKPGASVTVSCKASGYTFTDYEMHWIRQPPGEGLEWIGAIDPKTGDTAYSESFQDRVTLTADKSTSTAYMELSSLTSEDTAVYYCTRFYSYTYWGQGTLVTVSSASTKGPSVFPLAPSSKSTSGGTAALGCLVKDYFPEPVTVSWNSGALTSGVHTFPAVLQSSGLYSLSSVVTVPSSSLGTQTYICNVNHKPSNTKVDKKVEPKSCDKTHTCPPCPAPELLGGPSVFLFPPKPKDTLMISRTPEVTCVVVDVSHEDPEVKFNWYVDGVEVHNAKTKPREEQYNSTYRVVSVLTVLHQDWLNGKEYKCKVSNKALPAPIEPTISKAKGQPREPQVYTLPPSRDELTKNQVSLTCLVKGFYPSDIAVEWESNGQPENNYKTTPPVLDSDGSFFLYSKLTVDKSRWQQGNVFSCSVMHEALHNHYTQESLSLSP
light: B1 light
notes: homodimerized; mutation in both H chains; also called Ho Ab K334_05P
B18: GpH7-B3 variant S267_06M/GpL16-k0 (antibody, human IgG1, kappa)
heavy: not shown
light: B1 light
notes: homodimerized; mutation in both H chains; also called Ho Ab S267_06M
B19: GpH7-B3 variant K334_10E/GpL16-k0 (antibody, human IgG1, kappa)
heavy: not shown
light: B1 light
notes: homodimerized; mutation in both H chains; also called Ho Ab K334_10E
B20: GpH7-B3 variant K326_03V/GpL16-k0 (antibody, human IgG1, kappa)
heavy: not shown
light: B1 light
notes: homodimerized; mutation in both H chains; also called Ho Ab K326_03V
B21: GpH7-B3 variant P331_16H/GpL16-k0 (antibody, human IgG1, kappa)
heavy: not shown
light: B1 light
notes: homodimerized; mutation in both H chains; also called Ho Ab P331_16H
B22: GpH7-B3 variant S239_03V/GpL16-k0 (antibody, human IgG1, kappa)
heavy: not shown
light: B1 light
notes: homodimerized; mutation in both H chains; also called Ho Ab S239_03V
B23: GpH7-B3 variant S239_10E/GpL16-k0 (antibody, human IgG1, kappa)
heavy: not shown
light: B1 light
notes: homodimerized; mutation in both H chains; also called Ho Ab S239_10E
B24: GpH7-B3 variant P331_15Y/GpL16-k0 (antibody, human IgG1, kappa)
heavy: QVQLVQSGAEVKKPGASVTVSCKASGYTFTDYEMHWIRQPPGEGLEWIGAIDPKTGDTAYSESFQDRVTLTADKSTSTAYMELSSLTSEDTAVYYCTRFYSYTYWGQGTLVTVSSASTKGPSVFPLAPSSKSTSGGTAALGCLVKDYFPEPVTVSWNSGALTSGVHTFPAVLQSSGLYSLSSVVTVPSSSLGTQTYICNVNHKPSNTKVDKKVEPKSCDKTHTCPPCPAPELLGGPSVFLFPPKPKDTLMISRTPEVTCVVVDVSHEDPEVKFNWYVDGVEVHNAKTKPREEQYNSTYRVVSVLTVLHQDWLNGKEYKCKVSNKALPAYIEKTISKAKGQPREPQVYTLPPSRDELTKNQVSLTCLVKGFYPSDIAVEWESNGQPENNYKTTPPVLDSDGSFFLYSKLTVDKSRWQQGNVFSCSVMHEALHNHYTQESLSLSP
light: B1 light
notes: homodimerized; mutation in both H chains; also called Ho Ab P331_15Y
B25: GpH7-B3 variant K326_14T/GpL16-k0 (antibody, human IgG1, kappa)
heavy: not shown
light: B1 light
notes: homodimerized; mutation in both H chains; also called Ho Ab K326_14T
B26: GpH7-B3 variant I332_15Y/GpL16-k0 (antibody, human IgG1, kappa)
heavy: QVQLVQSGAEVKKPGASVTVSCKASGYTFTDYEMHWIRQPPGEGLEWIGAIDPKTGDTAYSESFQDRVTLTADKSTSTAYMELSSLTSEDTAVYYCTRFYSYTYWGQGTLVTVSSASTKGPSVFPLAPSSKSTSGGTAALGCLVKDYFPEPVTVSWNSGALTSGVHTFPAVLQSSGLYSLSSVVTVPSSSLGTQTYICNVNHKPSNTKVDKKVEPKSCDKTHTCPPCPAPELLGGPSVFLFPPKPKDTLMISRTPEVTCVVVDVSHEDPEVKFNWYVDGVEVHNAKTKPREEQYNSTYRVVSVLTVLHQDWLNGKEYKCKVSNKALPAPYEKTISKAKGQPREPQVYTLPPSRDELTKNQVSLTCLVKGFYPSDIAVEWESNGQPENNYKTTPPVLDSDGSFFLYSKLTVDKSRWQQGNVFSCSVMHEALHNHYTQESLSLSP
light: B1 light
notes: homodimerized; mutation in both H chains; also called Ho Ab I332_15Y
B27: GpH7-B3 variant K334_03V/GpL16-k0 (antibody, human IgG1, kappa)
heavy: not shown
light: B1 light
notes: homodimerized; mutation in both H chains; also called Ho Ab K334_03V
B28: GpH7-B3 variant P238_15Y/GpL16-k0 (antibody, human IgG1, kappa)
heavy: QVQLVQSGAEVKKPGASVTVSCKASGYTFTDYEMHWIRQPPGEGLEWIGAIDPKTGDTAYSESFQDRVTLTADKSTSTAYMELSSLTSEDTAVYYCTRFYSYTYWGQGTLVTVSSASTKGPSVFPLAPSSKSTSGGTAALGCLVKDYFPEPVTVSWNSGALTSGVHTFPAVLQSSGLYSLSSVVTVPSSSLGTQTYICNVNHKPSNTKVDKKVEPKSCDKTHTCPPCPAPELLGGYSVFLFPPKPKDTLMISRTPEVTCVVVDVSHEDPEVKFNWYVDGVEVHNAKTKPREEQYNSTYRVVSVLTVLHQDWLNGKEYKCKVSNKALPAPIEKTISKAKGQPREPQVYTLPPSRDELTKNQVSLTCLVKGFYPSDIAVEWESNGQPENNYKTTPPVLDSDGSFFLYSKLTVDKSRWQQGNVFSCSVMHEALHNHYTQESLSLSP
light: B1 light
notes: homodimerized; mutation in both H chains; also called Ho Ab P238_15Y
B29: GpH7-B3 variant I332_09D/GpL16-k0 (antibody, human IgG1, kappa)
heavy: not shown
light: B1 light
notes: homodimerized; mutation in both H chains; also called Ho Ab I332_09D
B30: GpH7-B3 variant V266_06M/GpL16-k0 (antibody, human IgG1, kappa)
heavy: not shown
light: B1 light
notes: homodimerized; mutation in both H chains; also called Ho Ab V266_06M
B31: GpH7-B3 variant I332_06M/GpL16-k0 (antibody, human IgG1, kappa)
heavy: not shown
light: B1 light
notes: homodimerized; mutation in both H chains; also called Ho Ab I332_06M
B32: GpH7-B3 variant K334_07I/GpL16-k0 (antibody, human IgG1, kappa)
heavy: not shown
light: B1 light
notes: homodimerized; mutation in both H chains; also called Ho Ab K334_07I
B33: GpH7-B3 variant Y296_20W/GpL16-k0 (antibody, human IgG1, kappa)
heavy: not shown
light: B1 light
notes: homodimerized; mutation in both H chains; also called Ho Ab Y296_20W
B34: GpH7-B3 variant P238_09D/GpL16-k0 (antibody, human IgG1, kappa)
heavy: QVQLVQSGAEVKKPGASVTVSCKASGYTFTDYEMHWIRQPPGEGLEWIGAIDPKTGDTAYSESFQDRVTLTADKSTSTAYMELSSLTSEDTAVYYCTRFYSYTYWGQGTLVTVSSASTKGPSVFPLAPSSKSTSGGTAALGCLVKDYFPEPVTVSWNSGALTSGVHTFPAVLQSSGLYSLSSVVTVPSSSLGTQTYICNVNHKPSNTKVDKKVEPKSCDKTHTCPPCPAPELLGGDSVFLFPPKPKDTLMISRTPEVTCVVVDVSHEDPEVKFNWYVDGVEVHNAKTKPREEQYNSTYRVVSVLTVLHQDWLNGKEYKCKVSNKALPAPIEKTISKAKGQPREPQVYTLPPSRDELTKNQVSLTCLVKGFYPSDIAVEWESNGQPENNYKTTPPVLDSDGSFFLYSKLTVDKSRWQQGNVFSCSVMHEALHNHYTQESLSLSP
light: B1 light
notes: homodimerized; mutation in both H chains; also called Ho Ab P238_09D
B35: GpH7-B3 variant L328_13S/GpL16-k0 (antibody, human IgG1, kappa)
heavy: not shown
light: B1 light
notes: homodimerized; mutation in both H chains; also called Ho Ab L328_13S
B36: GpH7-B3 variant K334_02A/GpL16-k0 (antibody, human IgG1, kappa)
heavy: not shown
light: B1 light
notes: homodimerized; mutation in both H chains; also called Ho Ab K334_02A
B37: GpH7-B3 variant K326_20W/GpL16-k0 (antibody, human IgG1, kappa)
heavy: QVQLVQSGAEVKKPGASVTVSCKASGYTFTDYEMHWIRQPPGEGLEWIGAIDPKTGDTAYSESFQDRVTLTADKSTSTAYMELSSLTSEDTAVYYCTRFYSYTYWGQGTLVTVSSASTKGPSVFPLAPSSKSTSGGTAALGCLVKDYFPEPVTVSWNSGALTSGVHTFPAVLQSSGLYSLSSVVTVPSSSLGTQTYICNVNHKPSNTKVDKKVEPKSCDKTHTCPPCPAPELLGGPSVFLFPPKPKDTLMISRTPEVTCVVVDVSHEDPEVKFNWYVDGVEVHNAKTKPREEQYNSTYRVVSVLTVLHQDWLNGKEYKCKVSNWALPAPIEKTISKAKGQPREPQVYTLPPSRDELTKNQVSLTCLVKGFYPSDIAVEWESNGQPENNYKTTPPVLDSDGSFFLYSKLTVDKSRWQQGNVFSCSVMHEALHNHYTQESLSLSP
light: B1 light
notes: homodimerized; mutation in both H chains; also called Ho Ab K326_20W
B38: GpH7-B3 variant K326_19Q/GpL16-k0 (antibody, human IgG1, kappa)
heavy: not shown
light: B1 light
notes: homodimerized; mutation in both H chains; label printed K326_190, read as K326_19Q; also called Ho Ab K326_19Q
B39: GpH7-B3 variant K326_15Y/GpL16-k0 (antibody, human IgG1, kappa)
heavy: not shown
light: B1 light
notes: homodimerized; mutation in both H chains; also called Ho Ab K326_15Y
B40: GpH7-B3 variant I332_14T/GpL16-k0 (antibody, human IgG1, kappa)
heavy: not shown
light: B1 light
notes: homodimerized; mutation in both H chains; label printed T332_14T, read as I332_14T; also called Ho Ab I332_14T
B41: GpH7-B3 variant S324_06M/GpL16-k0 (antibody, human IgG1, kappa)
heavy: not shown
light: B1 light
notes: homodimerized; mutation in both H chains; also called Ho Ab S324_06M
B42: GpH7-B3 variant K334_04F/GpL16-k0 (antibody, human IgG1, kappa)
heavy: not shown
light: B1 light
notes: homodimerized; mutation in both H chains; also called Ho Ab K334_04F
B43: GpH7-B3 variant K334_08L/GpL16-k0 (antibody, human IgG1, kappa)
heavy: not shown
light: B1 light
notes: homodimerized; mutation in both H chains; also called Ho Ab K334_08L
B44: GpH7-B3 variant K334_14T/GpL16-k0 (antibody, human IgG1, kappa)
heavy: not shown
light: B1 light
notes: homodimerized; mutation in both H chains; also called Ho Ab K334_14T
B45: GpH7-B3 variant T335_10E/GpL16-k0 (antibody, human IgG1, kappa)
heavy: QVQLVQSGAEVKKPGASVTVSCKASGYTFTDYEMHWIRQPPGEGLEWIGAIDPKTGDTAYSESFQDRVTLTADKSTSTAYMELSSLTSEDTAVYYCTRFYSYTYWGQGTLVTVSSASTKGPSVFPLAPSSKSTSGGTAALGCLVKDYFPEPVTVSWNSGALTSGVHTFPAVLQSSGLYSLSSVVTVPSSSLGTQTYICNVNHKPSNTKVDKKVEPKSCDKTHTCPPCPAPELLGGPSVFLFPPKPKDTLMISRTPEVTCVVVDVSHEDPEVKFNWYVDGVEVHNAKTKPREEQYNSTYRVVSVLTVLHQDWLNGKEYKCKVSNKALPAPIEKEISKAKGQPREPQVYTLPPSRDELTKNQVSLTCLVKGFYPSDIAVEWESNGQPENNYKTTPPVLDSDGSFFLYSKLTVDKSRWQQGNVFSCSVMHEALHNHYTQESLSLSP
light: B1 light
notes: homodimerized; mutation in both H chains; also called Ho Ab T335_10E
B46: GpH7-B3 variant P331_20W/GpL16-k0 (antibody, human IgG1, kappa)
heavy: not shown
light: B1 light
notes: homodimerized; mutation in both H chains; also called Ho Ab P331_20W
B47: GpH7-B3 variant I332_10E/GpL16-k0 (antibody, human IgG1, kappa)
heavy: not shown
light: B1 light
notes: homodimerized; mutation in both H chains; also called Ho Ab I332_10E
B48: GpH7-B3 variant L328_02A/GpL16-k0 (antibody, human IgG1, kappa)
heavy: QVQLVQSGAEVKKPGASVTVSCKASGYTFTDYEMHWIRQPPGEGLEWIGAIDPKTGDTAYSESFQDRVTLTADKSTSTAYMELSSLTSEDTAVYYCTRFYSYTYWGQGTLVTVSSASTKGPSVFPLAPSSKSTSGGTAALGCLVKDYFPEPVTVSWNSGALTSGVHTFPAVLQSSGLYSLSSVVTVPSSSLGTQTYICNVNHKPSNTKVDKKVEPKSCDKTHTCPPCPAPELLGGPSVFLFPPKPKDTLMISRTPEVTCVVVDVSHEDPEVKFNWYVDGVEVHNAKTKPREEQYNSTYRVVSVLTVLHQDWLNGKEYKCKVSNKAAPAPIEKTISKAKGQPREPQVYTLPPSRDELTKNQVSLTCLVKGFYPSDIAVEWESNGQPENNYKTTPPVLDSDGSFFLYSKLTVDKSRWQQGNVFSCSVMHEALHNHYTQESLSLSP
light: B1 light
notes: homodimerized; mutation in both H chains; also called Ho Ab L328_02A
B49: GpH7-B3 variant L235_20W/GpL16-k0 (antibody, human IgG1, kappa)
heavy: not shown
light: B1 light
notes: homodimerized; mutation in both H chains; also called Ho Ab L235_20W
B50: GpH7-B3 variant K326_10E/GpL16-k0 (antibody, human IgG1, kappa)
heavy: not shown
light: B1 light
notes: homodimerized; mutation in both H chains; also called Ho Ab K326_10E
B51: GpH7-B3 variant K334_13S/GpL16-k0 (antibody, human IgG1, kappa)
heavy: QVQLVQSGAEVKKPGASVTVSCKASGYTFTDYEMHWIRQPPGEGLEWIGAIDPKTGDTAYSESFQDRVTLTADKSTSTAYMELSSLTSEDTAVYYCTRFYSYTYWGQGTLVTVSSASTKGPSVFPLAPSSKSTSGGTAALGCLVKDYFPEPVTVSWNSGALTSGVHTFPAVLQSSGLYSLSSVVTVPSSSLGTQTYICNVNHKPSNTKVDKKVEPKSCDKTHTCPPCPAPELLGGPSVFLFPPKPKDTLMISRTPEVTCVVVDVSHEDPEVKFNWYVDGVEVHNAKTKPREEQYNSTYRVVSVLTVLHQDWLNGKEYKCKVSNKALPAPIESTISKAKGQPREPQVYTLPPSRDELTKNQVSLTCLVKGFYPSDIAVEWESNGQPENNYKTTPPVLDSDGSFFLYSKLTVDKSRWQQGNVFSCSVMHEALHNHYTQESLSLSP
light: B1 light
notes: homodimerized; mutation in both H chains; also called Ho Ab K334_13S
B52: GpH7-B3 variant S267_19Q/GpL16-k0 (antibody, human IgG1, kappa)
heavy: not shown
light: B1 light
notes: homodimerized; mutation in both H chains; also called Ho Ab S267_19Q
B53: GpH7-B3 variant S337_16H/GpL16-k0 (antibody, human IgG1, kappa)
heavy: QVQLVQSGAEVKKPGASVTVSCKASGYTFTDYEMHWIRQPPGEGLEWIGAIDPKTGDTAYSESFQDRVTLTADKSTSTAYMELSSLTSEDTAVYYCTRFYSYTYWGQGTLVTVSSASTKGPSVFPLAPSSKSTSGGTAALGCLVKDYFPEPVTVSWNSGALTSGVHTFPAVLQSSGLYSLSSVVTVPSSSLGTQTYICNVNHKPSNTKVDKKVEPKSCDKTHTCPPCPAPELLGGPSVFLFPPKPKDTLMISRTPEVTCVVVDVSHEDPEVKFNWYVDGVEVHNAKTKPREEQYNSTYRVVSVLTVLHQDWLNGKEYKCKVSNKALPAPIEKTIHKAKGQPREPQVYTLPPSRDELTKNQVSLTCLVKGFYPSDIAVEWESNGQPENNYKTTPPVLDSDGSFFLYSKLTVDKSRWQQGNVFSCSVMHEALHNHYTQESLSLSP
light: B1 light
notes: homodimerized; mutation in both H chains; also called Ho Ab S337_16H

Biological target: T1, FcγRIIb extracellular domain with …
Assay: SPR (Biacore), captured antibody, FcγRIIb analyte; binding relative to GpH7-A5/GpH7-B3/GpL16-k0 = 100

Row | Binder | He/Con_2b
1 | B1 | 199 % of control
2 | B2 | 172 % of control
3 | B3 | 110 % of control
4 | B4 | 140 % of control
5 | B5 | 104 % of control
6 | B6 | 167 % of control

Biological target: T1, FcγRIIb extracellular domain with …
Assay: SPR (Biacore), captured antibody, FcγRIIb analyte; binding relative to GpH7-B3/GpL16-k0 = 100

Row | Binder | Ho/Con_2b
7 | B7 | 117 % of control
8 | B8 | 103 % of control
9 | B9 | 168 % of control
10 | B10 | 193 % of control
11 | B11 | 209 % of control
12 | B12 | 240 % of control
13 | B13 | 131 % of control
14 | B14 | 104 % of control
15 | B15 | 160 % of control
16 | B16 | 104 % of control
17 | B17 | 112 % of control
18 | B18 | 187 % of control
19 | B19 | 129 % of control
20 | B20 | 184 % of control
21 | B21 | 100 % of control
22 | B22 | 108 % of control
23 | B23 | 175 % of control
24 | B24 | 111 % of control
25 | B25 | 177 % of control
26 | B26 | 109 % of control
27 | B27 | 145 % of control
28 | B28 | 114 % of control
29 | B29 | 182 % of control
30 | B30 | 231 % of control

Row | Binder | Ho/Con_2b
31 | B31 | 106 % of control
32 | B32 | 137 % of control
33 | B33 | 103 % of control
34 | B34 | 207 % of control
35 | B35 | 147 % of control
36 | B36 | 110 % of control
37 | B37 | 132 % of control
38 | B38 | 163 % of control
39 | B39 | 162 % of control
40 | B40 | 106 % of control
41 | B41 | 104 % of control
42 | B42 | 115 % of control
43 | B43 | 114 % of control
44 | B44 | 138 % of control
45 | B45 | 108 % of control
46 | B46 | 111 % of control
47 | B47 | 181 % of control
48 | B48 | 117 % of control
49 | B49 | 116 % of control
50 | B50 | 237 % of control
51 | B51 | 117 % of control
52 | B52 | 185 % of control
53 | B53 | 103 % of control
